Measured values taken from US20210309747A1.

Target: human PD-L1 on Raji cells (human) (UniProt Q9NZQ7)
Assay: flow cytometry blocking assay on Raji-PDL1 cells; blocked ligand: biotinylated Avi- and His-tag human PD1 protein at 3 ug/mL, Streptavidin-PE, MFI; isotype control, the fitted curve falls only from MFI about 320 to about 240

Chain of human PD-L1 on Raji cells (human) (Q9NZQ7 19-290): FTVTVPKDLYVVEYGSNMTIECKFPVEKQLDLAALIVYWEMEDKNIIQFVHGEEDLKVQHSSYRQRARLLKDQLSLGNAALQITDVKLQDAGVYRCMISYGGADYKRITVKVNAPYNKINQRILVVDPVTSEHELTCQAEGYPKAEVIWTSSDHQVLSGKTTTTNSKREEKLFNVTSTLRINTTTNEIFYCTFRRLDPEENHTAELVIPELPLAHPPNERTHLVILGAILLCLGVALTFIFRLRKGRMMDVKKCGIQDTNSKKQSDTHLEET

An EC50 of 0.45 nM was found for IgG (antibody) in this work.
